We go through 3 molecules from patent US20240199761A1 (AstraZeneca / MedImmune, published 2024).

The term Kd denotes the concentration at which binding is half-saturated. As usually defined, the koff is the rate constant with which the complex falls apart. As a reminder, the kon is the rate constant with which the complex forms.

The target in assay [1] is recombinant human PAD2 (human, UniProt Q9Y2J8 1-665). Briefly: cell-based or functional assay.
Assay [2] concerns the target T1, recombinant mouse PAD2 (mouse, UniProt Q08642 1-673).
T1 construct: Recombinant and tagged
The assay can be described thus: ratio of SPR KDs, mouse PAD2 against human PAD2; antibody captured on C1-Protein G', PAD flowed over.

The target of assay [3] is T2, huFcRn (human, UniProt P55899 24-297; P61769 21-119, limits assumed).
T2 construct: also called human neonatal Fc receptor
The assay can be described thus: huFcRn affinity chromatography, pH gradient elution.

The target of assay [4] is T3, mouse PAD2, recombinant, tags at the N-terminus (mouse, UniProt Q08642 1-673, enzymatically biotinylated on an Avi-tag where captured on streptavidin).
T3 construct: not shown: N-terminal tags incl; Avi-tag
Briefly: SPR; antibody on C1-Protein G', PAD2 flowed over.

Assay [5] concerns the target T4, human PAD2, recombinant, tags at the N-terminus (human, UniProt Q9Y2J8 1-665, enzymatically biotinylated on an Avi-tag where captured on streptavidin).
T4 construct: not shown: N-terminal tags incl; Avi-tag
The assay can be described thus: SPR; antibody on C1-Protein G', PAD2 flowed over.

The target in assay [6] is T5, cynomolgus PAD2, recombinant, tags at the N-terminus (cynomolgus, UniProt G7NUR0 1-665, enzymatically biotinylated on an Avi-tag where captured on streptavidin).
T5 construct: also called Cyno PAD2; not shown: N-terminal tags incl; Avi-tag
Briefly: SPR; antibody on C1-Protein G', PAD2 flowed over. On the technique in general: In SPR one partner is held on a chip, and binding of the other changes the refractive index at the surface.

Assay [7] addresses T3, mouse PAD2, recombinant, tags at the …. The assay can be described thus: SPR; antibody captured on a surface, PAD2 flowed over.
The target of assay [8] is T4, human PAD2, recombinant, tags at the …. The assay is described as above.
For assay [9], the target named is T5, cynomolgus PAD2, recombinant, tags at …. Described as above.

B1: Clone 07 (Bis3, TM; Fab anti-PAD4, scFv anti-PAD2) (bispecific antibody, human IgG1, lambda)
heavy: not shown
light: QSALTQPRSVSGSPGQSVTISCTGTSGDVGRYSHVSWYQQHPGKAPKLIIYNVYERPSGVPDRFSGSKSGNTASLTISGLQAEDEADYYCSSHSRSSTPVLFGGGTKLTVLGQPKAAPSVTLFPPSSEELQANKATLVCLISDFYPGAVTVAWKADSSPVKAGVETTTPSKQSNNKYAASSYLSLTPEQWKSHRSYSCQVTHEGSTVEKTVAPTECS
notes: Bivalent bispecific IgG-HC-scFv; also called Clone 7*; PAD240007
B1: the “Potency (IC50), Histone-H3 assay” value in [1] was found to be 238 pM. For the same molecule, the “fold difference in KD, mouse/human” value in [2] was determined as 1 fold. In addition, in [3], the “HPLC retention” value came to 17.8 min and the Relative retention is -0.081.

B2: Clone 22 (IgG) (141LO0035 hIgG1 pgl-4) (antibody, V domains shown)
VH: not shown
VL: SYVLTQPPSVSVSPGQTASITCSGDKVGDKYVSWYQQKPGQSPVLVIYQDSQRPSGIPERFSGSNSGNTATLTISGTQAMDEADYYCQTWAPDVLLFGSGTKVTVL
notes: also called PAD2 IgG
Take B2: in assay [1], the “Potency (IC50), Histone-H3 assay” value was 138 pM. For the same molecule, in assay [2], the “fold difference in KD, mouse/human” value turned out to be 1.2 fold.

B3: anti-PAD2 Clone 22 (141LO0035 hIgG1 pgl-4), IgG (antibody, V domains shown)
VH: not shown
VL: SYVLTQPPSVSVSPGQTASITCSGDKVGDKYVSWYQQKPGQSPVLVIYQDSQRPSGIPERFSGSNSGNTATLTISGTQAMDEADYYCQTWAPDVLLFGSGTKVTVL
notes: also called Clone 22 (IgG)
Consider B3, for which the Kd in [4] worked out at 4.59 pM; in assay [5], 3.9 pM; in [6], 11 pM; in assay [7], 4.59 pM; in assay [8], 3.9 pM; in assay [9], 11 pM. For the same molecule, the results for the koff in assay [7], in assay [8] and in [9] were 2.24e-05 s⁻¹, 1.71e-05 s⁻¹ and 3.33e-05 s⁻¹, respectively. Also, the figures for the kon in [7], in [8] and in assay [9] were 4.93e+06 M⁻¹ s⁻¹, 4.36e+06 M⁻¹ s⁻¹ and 3.06e+06 M⁻¹ s⁻¹, respectively.
